In patent EP1752160A2 (Mannkind Corporation, dated 2007):

B1: tyrosinase207-215 (peptide)
peptide: FLPWHRLFL
notes: Synthetic 9-mer of tyrosinase; also called Tyr 207-215
B2: PSMA663-671 (peptide)
peptide: MMNDQLMFL
notes: 9-mer of prostate specific membrane antigen
B3: tyrosinase208-216 (peptide)
peptide: LPWHRLFLL
notes: Synthetic 9-mer of tyrosinase; also called Tyr 208-216

Key:
[1] = biological target: T1, HLA-A2.1 (human); test: HLA-A2 binding assay on T2 cells, flow cytometry
T1 construct: also called HLA-A*0201; HLA-A0201

[2] = biological target: T1, HLA-A2.1; test: T2 cell HLA-A*0201 stabilisation assay, flow cytometry
[3] = biological target: T1, HLA-A2.1; test: T2 cell HLA-A2.1 stabilisation assay, flow cytometry

Binder | binding result [1] | also measured
B1 | binds | 
B2 |  | binding result [2]: binds
B3 | binds | 
KASEKIFYV (Synthetic 9-mer of SSX-2) [SSX-2 41-49] |  | binding result [3]: binds
